# Test results from publication PMC10881741, “Structural modifications toward improved lead-203/lead-212 peptide-based image-guided alpha-particle radiopharmaceutical therapies for neuroendocrine tumors” (European Journal of Nuclear Medicine and Molecular Imaging, 2023).
# Read-outs that look alike come from different tables or passages of the source.
# Key:
# AR42J xenografts = test: SPECT/CT imaging with blocking by unlabeled peptide; type: in vivo, mice; conditions: 11.1 MBq, 30 nmol unlabeled PSC-PEG2-TOC
# Procedure: Serial SPECT/CT imaging was conducted at 3 h and 24 h post-administration. The imaging study was performed at the University of Iowa Small Animal Imaging Core using an INVEON trimodality SPECT/positron emission tomography (PET)/CT scanner (Siemens Preclinical, Knoxville, TN) equipped with medium-energy (0.3 mm) pinhole collimators. Data were reconstructed using three-dimensional ordered-subsets expectation maximization (OSEM-3D) algorithm with eight iterations and six subsets. Post-reconstruction images were smoothed with a 3D Gaussian kernel. Post-imaging biodistribution of the radiotracer in mice was obtained at 30 h post-administration.
# [1] = In vivo biodistribution of ^203Pb-labeled peptides; parameters: species or system mice; conditions: female, athymic nu/nu, mouse, intravenous, total radioactivity
# Procedure: AR42J cells (5.0 × 10^6 cells/animal) were implanted subcutaneously on the left shoulder of female athymic nu/nu mice. […] Extra groups of mice were co-administered 37 kBq of ^203Pb-PSC-PEG2-TOC with DL-lysine (400 mg/kg) to determine the effect of amino acid on renal uptake of the radiopharmaceutical. Mice (n=3 per time point) were euthanized at 1, 3, and 24 h post-administration, and tumors and organs/tissues of interest were excised and weighed. The radioactivities of the samples were measured using the gamma counter.
smiles,measurement,setting,value
"C[C@@H](O)[C@@H]1NC(=O)[C@H](CCCCN)NC(=O)[C@@H](Cc2c[nH]c3ccccc23)NC(=O)[C@H](Cc2ccc(O)cc2)NC(=O)[C@@H](NC(=O)[C@@H](Cc2ccccc2)NC(=O)CCOCCOCCNC(=O)CN2CCN(CC(=O)O)CCN(CC(N)=O)CCN(CC(=O)O)CC2)CSSC[C@@H](C(=O)N[C@H](CO)[C@@H](C)O)NC1=O [[^203Pb]Pb-PSC-PEG2-TOC, metal not drawn]",Tumor uptake with co-administration of excessive unlabeled peptide,AR42J xenografts,almost completely blocked
same,tissue uptake at 1 h,"[1]; blood, 37 kBq, 1 h post-administration, read-out: Blood",0.36 ± 0.1 %ID/g
same,tissue uptake at 3 h,"[1]; blood, 37 kBq, 3 h (No Lys), Table S4 study, read-out: Blood",0.07 ± 0.02 %ID/g
same,tissue uptake at 3 h,"[1]; blood, 37 kBq, 3 h post-administration, read-out: Blood",0.05 %ID/g
same,tissue uptake at 24 h,"[1]; blood, 37 kBq, 24 h post-administration, read-out: Blood",0.02 %ID/g
same,tissue uptake at 1 h,"[1]; blood, 1 h, DL-lysine co-administered, read-out: Blood",0.36 ± 0.15 %ID/g
same,tissue uptake at 3 h,"[1]; blood, 3 h (Blocking): 10 nmol unlabeled PSC-PEG2-TOC co-administered, read-out: Blood",0.13 ± 0.02 %ID/g
same,tissue uptake at 3 h,"[1]; blood, 3 h, DL-lysine co-administered, read-out: Blood",0.07 ± 0.02 %ID/g
same,tissue uptake at 6 h,"[1]; blood, DL-lysine co-administered, read-out: Blood",0.05 ± 0.03 %ID/g
same,tissue uptake at 24 h,"[1]; blood, 24 h, DL-lysine co-administered, read-out: Blood",0.01 %ID/g
same,tissue uptake at 3 h,"[1]; bone marrow, 37 kBq, 3 h (No Lys), Table S4 study, read-out: Bone marrow",4.17 ± 1.51 %ID/g
same,tissue uptake at 1 h,"[1]; bone marrow, 1 h, DL-lysine co-administered, read-out: Bone marrow",2.42 ± 0.32 %ID/g
same,tissue uptake at 3 h,"[1]; bone marrow, 3 h (Blocking): 10 nmol unlabeled PSC-PEG2-TOC co-administered, read-out: Bone marrow",0.99 ± 0.42 %ID/g
same,tissue uptake at 3 h,"[1]; bone marrow, 3 h, DL-lysine co-administered, read-out: Bone marrow",4.13 ± 1.55 %ID/g
same,tissue uptake at 6 h,"[1]; bone marrow, DL-lysine co-administered, read-out: Bone marrow",1.69 ± 0.34 %ID/g
same,tissue uptake at 24 h,"[1]; bone marrow, 24 h, DL-lysine co-administered, read-out: Bone marrow",0.87 ± 0.6 %ID/g
same,tissue uptake at 3 h,"[1]; bone, 37 kBq, 3 h (No Lys), Table S4 study, read-out: Bone",0.62 ± 0.24 %ID/g
same,tissue uptake at 1 h,"[1]; bone, 1 h, DL-lysine co-administered, read-out: Bone",1.48 ± 0.34 %ID/g
same,tissue uptake at 3 h,"[1]; bone, 3 h (Blocking): 10 nmol unlabeled PSC-PEG2-TOC co-administered, read-out: Bone",0.16 ± 0.1 %ID/g
same,tissue uptake at 3 h,"[1]; bone, 3 h, DL-lysine co-administered, read-out: Bone",0.48 ± 0.05 %ID/g
same,tissue uptake at 6 h,"[1]; bone, DL-lysine co-administered, read-out: Bone",0.35 ± 0.06 %ID/g
same,tissue uptake at 24 h,"[1]; bone, 24 h, DL-lysine co-administered, read-out: Bone",0.16 ± 0.04 %ID/g
same,tissue uptake at 1 h,"[1]; brain, 37 kBq, 1 h post-administration, read-out: Brain",0.04 ± 0.01 %ID/g
same,tissue uptake at 3 h,"[1]; brain, 37 kBq, 3 h (No Lys), Table S4 study, read-out: Brain",0.08 ± 0.06 %ID/g
same,tissue uptake at 3 h,"[1]; brain, 37 kBq, 3 h post-administration, read-out: Brain",0.02 %ID/g
same,tissue uptake at 24 h,"[1]; brain, 37 kBq, 24 h post-administration, read-out: Brain",0.01 %ID/g
same,tissue uptake at 1 h,"[1]; brain, 1 h, DL-lysine co-administered, read-out: Brain",0.04 ± 0.01 %ID/g
same,tissue uptake at 3 h,"[1]; brain, 3 h (Blocking): 10 nmol unlabeled PSC-PEG2-TOC co-administered, read-out: Brain",0.03 ± 0.01 %ID/g
same,tissue uptake at 3 h,"[1]; brain, 3 h, DL-lysine co-administered, read-out: Brain",0.03 ± 0.01 %ID/g
same,tissue uptake at 6 h,"[1]; brain, DL-lysine co-administered, read-out: Brain",0.02 %ID/g
same,tissue uptake at 24 h,"[1]; brain, 24 h, DL-lysine co-administered, read-out: Brain",0.01 %ID/g
same,tissue uptake at 1 h,"[1]; heart, 37 kBq, 1 h post-administration, read-out: Heart",0.2 ± 0.05 %ID/g
same,tissue uptake at 3 h,"[1]; heart, 37 kBq, 3 h (No Lys), Table S4 study, read-out: Heart",0.2 ± 0.13 %ID/g
same,tissue uptake at 3 h,"[1]; heart, 37 kBq, 3 h post-administration, read-out: Heart",0.08 ± 0.02 %ID/g
same,tissue uptake at 24 h,"[1]; heart, 37 kBq, 24 h post-administration, read-out: Heart",0.03 ± 0.01 %ID/g
same,tissue uptake at 1 h,"[1]; heart, 1 h, DL-lysine co-administered, read-out: Heart",0.28 ± 0.08 %ID/g
same,tissue uptake at 3 h,"[1]; heart, 3 h (Blocking): 10 nmol unlabeled PSC-PEG2-TOC co-administered, read-out: Heart",0.07 ± 0.03 %ID/g
same,tissue uptake at 3 h,"[1]; heart, 3 h, DL-lysine co-administered, read-out: Heart",0.15 ± 0.03 %ID/g
same,tissue uptake at 6 h,"[1]; heart, DL-lysine co-administered, read-out: Heart",0.07 ± 0.05 %ID/g
same,tissue uptake at 24 h,"[1]; heart, 24 h, DL-lysine co-administered, read-out: Heart",0.03 ± 0.01 %ID/g
same,tissue uptake at 1 h,"[1]; kidneys, 37 kBq, 1 h post-administration, read-out: Kidneys",20.6 %ID/g
same,tissue uptake at 3 h,"[1]; kidneys, 37 kBq, 3 h (No Lys), Table S4 study, read-out: Kidneys",22.1 ± 1.92 %ID/g
same,tissue uptake at 3 h,"[1]; kidneys, 37 kBq, 3 h post-administration, read-out: Kidneys",15.8 ± 1.11 %ID/g
same,tissue uptake at 24 h,"[1]; kidneys, 37 kBq, 24 h post-administration, read-out: Kidneys",1.5 %ID/g
same,tissue uptake at 1 h,"[1]; kidneys, 1 h, DL-lysine co-administered, read-out: Kidneys",13.3 ± 3.8 %ID/g
same,tissue uptake at 3 h,"[1]; kidneys, 3 h (Blocking): 10 nmol unlabeled PSC-PEG2-TOC co-administered, read-out: Kidneys",40.9 ± 9.92 %ID/g
same,tissue uptake at 3 h,"[1]; kidneys, 3 h, DL-lysine co-administered, read-out: Kidneys",9.84 ± 0.88 %ID/g
same,tissue uptake at 6 h,"[1]; kidneys, DL-lysine co-administered, read-out: Kidneys",5.44 ± 0.63 %ID/g
same,tissue uptake at 24 h,"[1]; kidneys, 24 h, DL-lysine co-administered, read-out: Kidneys",1.25 ± 0.86 %ID/g
same,tissue uptake at 1 h,"[1]; large intestine, 37 kBq, 1 h post-administration, read-out: Large intestine",1.24 ± 0.12 %ID/g
same,tissue uptake at 3 h,"[1]; large intestine, 37 kBq, 3 h (No Lys), Table S4 study, read-out: Large intestine",1.92 ± 0.56 %ID/g
same,tissue uptake at 3 h,"[1]; large intestine, 37 kBq, 3 h post-administration, read-out: Large intestine",6.32 ± 0.68 %ID/g
same,tissue uptake at 24 h,"[1]; large intestine, 37 kBq, 24 h post-administration, read-out: Large intestine",0.83 ± 0.45 %ID/g
same,tissue uptake at 1 h,"[1]; large intestine, 1 h, DL-lysine co-administered, read-out: Large intestine",1.99 ± 0.31 %ID/g
same,tissue uptake at 3 h,"[1]; large intestine, 3 h (Blocking): 10 nmol unlabeled PSC-PEG2-TOC co-administered, read-out: Large intestine",0.99 ± 0.46 %ID/g
same,tissue uptake at 3 h,"[1]; large intestine, 3 h, DL-lysine co-administered, read-out: Large intestine",3.97 ± 0.97 %ID/g
same,tissue uptake at 6 h,"[1]; large intestine, DL-lysine co-administered, read-out: Large intestine",3.34 ± 0.63 %ID/g
same,tissue uptake at 24 h,"[1]; large intestine, 24 h, DL-lysine co-administered, read-out: Large intestine",1.01 ± 0.67 %ID/g
same,tissue uptake at 1 h,"[1]; liver, 37 kBq, 1 h post-administration, read-out: Liver",0.36 ± 0.05 %ID/g
same,tissue uptake at 3 h,"[1]; liver, 37 kBq, 3 h (No Lys), Table S4 study, read-out: Liver",0.31 ± 0.03 %ID/g
same,tissue uptake at 3 h,"[1]; liver, 37 kBq, 3 h post-administration, read-out: Liver",0.23 ± 0.02 %ID/g
same,tissue uptake at 24 h,"[1]; liver, 37 kBq, 24 h post-administration, read-out: Liver",0.08 ± 0.04 %ID/g
same,tissue uptake at 1 h,"[1]; liver, 1 h, DL-lysine co-administered, read-out: Liver",0.44 ± 0.08 %ID/g
same,tissue uptake at 3 h,"[1]; liver, 3 h (Blocking): 10 nmol unlabeled PSC-PEG2-TOC co-administered, read-out: Liver",0.3 ± 0.07 %ID/g
same,tissue uptake at 3 h,"[1]; liver, 3 h, DL-lysine co-administered, read-out: Liver",0.25 ± 0.05 %ID/g
same,tissue uptake at 6 h,"[1]; liver, DL-lysine co-administered, read-out: Liver",0.17 ± 0.02 %ID/g
same,tissue uptake at 24 h,"[1]; liver, 24 h, DL-lysine co-administered, read-out: Liver",0.06 ± 0.01 %ID/g
same,tissue uptake at 1 h,"[1]; lung, 37 kBq, 1 h post-administration, read-out: Lung",3.58 ± 1.64 %ID/g
same,tissue uptake at 3 h,"[1]; lung, 37 kBq, 3 h (No Lys), Table S4 study, read-out: Lung",4.61 ± 3.75 %ID/g
same,tissue uptake at 3 h,"[1]; lung, 37 kBq, 3 h post-administration, read-out: Lung",0.38 ± 0.07 %ID/g
same,tissue uptake at 24 h,"[1]; lung, 37 kBq, 24 h post-administration, read-out: Lung",1.46 ± 0.4 %ID/g
